Experimental data published in patent US5583112A, “Saponin-antigen conjugates and the use thereof” (priority 1992, dated 1996).

What was measured:
anti-lysozyme IgG = assay: Immunization of mice with QA-21-lysozyme conjugate (total anti-lysozyme IgG); format: in vivo, C57bl/6 mice; conditions: days 0 and 14 intradermal; bled day 21
Method: The QA-21-lysozyme from Example 18 conjugate was used to immunize mice (C57bl/6), with and without added QA-21 as adjuvant. Ten nice (9 weeks of age at the beginning of the immunization) were immunized per group. Immunizations were made intradermally at day 0 and day 14 with a total volume of 0.2 ml (PBS buffer, pH 7). The vaccines contained the following dosages of antigen and adjuvant:
The mice were bled on day 21 and the anti-lysozyme IgG titers were determined. Microtitre plates (in the alternative, Co-bind® plates from Micromembranes may be used) were incubated at 4° C. overnight with 10 μg/ml of lysozyme in about 100 μl of PBS. The plates were then washed two times with PBS and blocked for one hour with 150 μl/well of 10% normal goat serum at room temperature. The plates were then washed two times with 0.05% Tween-20 in water.
The mice sera were incubated with the lysozyme coated plates as follows. The individual serum samples (10μl) diluted with 10% normal goat serum in PBS to make 100 μl, as well as serial dilutions thereof (1:10) were added to the wells and incubated for 1 hour at room temperature. The wells were then washed four times with 0.05% Tween-20. […] The conjugate was then detected by tetramethylbenzidine substrate (Bos, E.S. et al., J. Immunoassay 2:187 (1981)). After incubation, the OD450 was read. […]

[1] = test system: anti-lysozyme antibodies (IgG1, IgG2B, IgG2A, IgM, IgG3); assay: Isotyping of anti-lysozyme antibodies; format: in vivo, C57bl/6 mice; conditions: FIG. 22
Method: Next, the anti-lysozyme antibodies produced by each group of mice were isotyped. Microtitre plates were incubated at 4° C. overnight with 10 μg/ml of lysozyme in about 100 μl of PBS. The plates were then washed two times with PBS and blocked for one hour with 150 μl/well of 10% normal goat serum in PBS at room temperature. The plates were then washed two times with 0.05% Tween-20 in water.
The mice sera were incubated with the lysozyme coated plates as follows. The serum samples were tested in separate lanes for IgG1, IgG2B, IgG2A, IgM and IgG3. The individual serum samples (10 μl) were diluted with 10% normal goat serum in PBS to make 100 μl, and serial dilutions thereof (1:10) were added to the wells and incubated for 1 hour at room temperature. The wells were then washed four times with 0.05% Tween-20. […] The conjugates were then detected by adding 100 μl per well of 1 mg/ml p-nitrophenylphosphate in 0.1M borate, pH 9.0. After incubation for 6 and 24 hours at room temperature, tile OD410 was read.

Substance | Anti-lysozyme antibody response (immunogenicity) (anti-lysozyme IgG) | Antibody isotypes produced [1]
lysozyme-QA-21 conjugate: QA-21 coupled via glucuronic acid to lysozyme, 1:1 molar ratio | higher antibody titer than either of the groups receiving free QA-21 | –
lysozyme: a poorly immunogenic, very hydrophilic protein | poorly immunogenic | only IgM antibodies were produced
